B1: HA-DrSTING stably expressed in MEF Sting-/- cells (MEF^DrSTING) (natural protein, Danio rerio)
chain: MSVMGEDALVPRARSRLPVMCAAGLGFLTLAVAWLLDSDKFSERAGIIAFGLMLERFIYCICLLAEELLFHSRQRYHGRMSEIFRACFRGSGILGMCAIFLMLMLGGVSFSVKQWSHFNLMCAGYMLLNSLGVLGPAPVEISEICEAKKMNVAHGLAWSFYIGYLKFLLPALEVNVREYSRRERLSSPRLHILLPLNARVPSKPEEEDTNVVFHENLPDLKLDRAGVRKRSYTNSVYKITHNNETFSCILEYATPLLTLYQMSQESSAGFGERERKQQVLLFYRTLSQILDNSLECRNRYRLILLNDEHTGDPHYLSRELFQNLKQQDGEIFMDPTNEVHPVPEEGPVGNCNGALQATFHEEPMSDEPTLMFSRPQSLRSEPVETTDYFNPSSAMKQN
B2: HA-NvSTING stably expressed in MEF Sting-/- cells (MEF^NvSTING) (natural protein, Nematostella vectensis)
chain: MRRAEENNGFGTIPKRRNQHTPFYASIGMIVVIIVAFTSYHITSYGDDRNRAMRQYSFTFSLAYLAFLVGELLRRCCLFAEEYRHIETRYNGSLKKAIQTTFSFGHNNVLFVASLLFFVVFVASNDPNGSSSVIQGNSTAEPHTEMRQTSGWQGLWGQFIISALLTPLVVHLLGLRELSKVEESQLNEKENKNVADGLAWSYYFGYLKFVLPELEKQIEKTSKFRSKEKFVKKMFILIPSNCFWDDKIPGSDYDPQNRITFEGNTEPLEKTRGGVFLRHYKHSVYEIKDGENEPWFCIMEYATPLLTLYDMSVAQPGELSREERDAQVVVFLRKLQDILEGDRACQGKYELVTFSPDRDLADVMLRKLKDSELEIGG
B3: HA-MmSTING stably expressed in MEF Sting-/- cells (MEF^MmSTING) (natural protein, Mus musculus)
chain: MPYSNLHPAIPRPRGHRSKYVALIFLVASLMILWVAKDPPNHTLKYLALHLASHELGLLLKNLCCLAEELCHVQSRYQGSYWKAVRACLGCPIHCMAMILLSSYFYFLQNTADIYLSWMFGLLVLYKSLSMLLGLQSLTPAEVSAVCEEKKLNVAHGLAWSYYIGYLRLILPGLQARIRMFNQLHNNMLSGAGSRRLYILFPLDCGVPDNLSVVDPNIRFRDMLPQQNIDRAGIKNRVYSNSVYEILENGQPAGVCILEYATPLQTLFAMSQDAKAGFSREDRLEQAKLFCRTLEEILEDVPESRNNCRLIVYQEPTDGNSFSLSQEVLRHIRQEEKEEVTMNAPMTSVAPPPSVLSQEPRLLISGMDQPLPLRTDLI
B4: HA-MbSTING stably expressed in MEF Sting-/- cells (MEF^MbSTING) (natural protein, Monosiga brevicollis)
chain: MMVNLSDLSHLSQRGWAQVFVTLAAAAISIFYFSFSPFEVAAGICASIAAAGAVPLLFDAVHYLIAFCISAPDARPPLRTVWTKTRLQRWSGLSILTFIVLACGLYFASPSPMSASNLFAVFALSLCNSVFSAMVAPRCGRLEVVDLATHPNTVLFRDFGAASAMSYWHGYLQHIAGDRAALEERFRDSDVGGMRVPRKLYILVPQDCEVNASDNKYEGLKATEHYISPKPITIGGVVDREMGKHTLYTPSESAETASVAFAMELASPLNTMKNALKDAAEGLLELQSEAFYLTLRGILKQEGVLDQGNDEGMIKLVWGKNRSEVLKKMRAEDQYAMP

Biological target: the molecule itself
Assay: native gel or EMSA
In the case of B1, the “stoichiometry N” value is reported as no less than 4. With B2 the “stoichiometry N” value was no less than 4. For B3, the “stoichiometry N” value was no less than 4. For B4, the “stoichiometry N” value was 4.
